The text below walks through data of patent US20200392227A1 (LYVGEN BIOPHARMA, published 2020).

Assay [1] has as its target T1, human FcRI protein (MednaBio, E1031) (human, UniProt P12314 16-288, limits assumed).
T1 construct: Bought; loaded on anti-penta-HIS biosensors; also called FcγRI
The assay is described as follows: BLI. Background: BLI is a label-free optical method that tracks binding on a fibre tip over time.

For assay [2], the target named is T2, human FcRIIA protein (MednaBio, E1033) (human, UniProt P12318 34-218, limits assumed).
T2 construct: Bought; also called FcγRIIA
T2 sequence (looked up): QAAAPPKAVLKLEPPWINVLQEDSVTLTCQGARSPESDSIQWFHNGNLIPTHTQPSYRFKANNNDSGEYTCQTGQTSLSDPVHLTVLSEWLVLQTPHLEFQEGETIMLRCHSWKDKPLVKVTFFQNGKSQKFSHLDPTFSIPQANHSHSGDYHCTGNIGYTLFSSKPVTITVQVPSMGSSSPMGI
The assay is described as follows: BLI.

Assay [3] concerns the target T3, human FcRIIB/C protein (MednaBio, E1034) (human, UniProt P31994 43-217, limits assumed).
T3 construct: Bought as FcRIIB/C; also called FcγRIIB; CD32B
T3 sequence (looked up): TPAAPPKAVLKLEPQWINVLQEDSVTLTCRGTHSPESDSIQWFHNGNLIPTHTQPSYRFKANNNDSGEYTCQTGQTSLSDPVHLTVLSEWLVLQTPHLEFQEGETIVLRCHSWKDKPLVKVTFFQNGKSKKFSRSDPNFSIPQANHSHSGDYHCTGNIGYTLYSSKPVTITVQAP
The assay is described as follows: BLI.

The target in assay [4] is T4, human FcRIIIA-F158 protein (MednaBio, E1036) (human, UniProt P08637 17-208).
T4 construct: Bought; also called FcγRIIIA(F)
T4 sequence (P08637 17-208 limits assumed): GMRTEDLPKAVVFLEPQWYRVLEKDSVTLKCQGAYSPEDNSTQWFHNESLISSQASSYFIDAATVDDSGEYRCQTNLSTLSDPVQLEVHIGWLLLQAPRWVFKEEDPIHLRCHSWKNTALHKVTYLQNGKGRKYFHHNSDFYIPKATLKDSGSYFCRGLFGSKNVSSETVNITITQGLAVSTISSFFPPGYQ
The assay is described as follows: BLI.

For assay [5], the target named is T5, human FcRIIIA-V158 protein (MednaBio, E1035) (human, UniProt P08637 17-208).
T5 construct: Bought; also called FcγRIIIA(V); FcgRIIIA(V)
T5 sequence (P08637 17-208 F176V): as the sequence (P08637 17-208 limits assumed) above, with F160V counted along it
The assay can be described thus: BLI.

Assay [6] addresses T6, human FcRn protein (MednaBio, E1032) (human, UniProt P55899 24-297; P61769 21-119).
T6 construct: Bought; assays at pH 6
The assay can be described thus: BLI.

Assay [7] has as its target T7, human FcγRI expressed on CHO cells (human, UniProt P12314 16-374).
T7 construct: whole, on cells
The assay is described as follows: FACS, CHO cells expressing FcγRI. Summed up: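 Trypsin-harvested CHO cells overexpressing each FcγR were incubated 2 h at 4 °C with IgG mutants in 3% BSA/PBS. Bound IgG was detected with PE-labeled anti-human IgG (2 h, 4 °C), then cells were fixed in 2% PFA and analysed by flow cytometry.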
Background: A flow cytometer gives signals particle by particle.

Assay [8] addresses T8, human FcγRIIB expressed on CHO cells (human, UniProt P31994 43-310).
T8 construct: whole, on cells; also called CD32B
T8 sequence (looked up): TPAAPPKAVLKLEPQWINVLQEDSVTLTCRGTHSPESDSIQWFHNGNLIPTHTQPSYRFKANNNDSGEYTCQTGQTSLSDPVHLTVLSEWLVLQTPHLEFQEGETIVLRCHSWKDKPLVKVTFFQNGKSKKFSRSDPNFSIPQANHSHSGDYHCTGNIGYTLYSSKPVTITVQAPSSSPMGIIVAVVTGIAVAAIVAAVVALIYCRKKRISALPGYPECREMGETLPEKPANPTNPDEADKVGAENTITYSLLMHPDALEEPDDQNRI
The assay is described as follows: FACS, CHO cells expressing FcγRIIB. The procedure:
For FACS analysis of the IgG mutants' binding to different FcγRs, FcγR overexpressing CHO cells were harvested using trypsin-EDTA and were suspended in cold staining buffer (3% BSA in PBS). Test IgG mutants, which were diluted in staining buffer, were added into the cells. The mixture was incubated 4° C. for 2 hours, and then washed twice with cold staining buffer and re-suspended in PE-labeled anti-human IgG followed by incubation at 4° C. for 2 hours. The mixture was washed twice with staining buffer and re-suspended in 2% PFA in PBS for FACS.

In assay [9] the target is T9, human FcγRIIC expressed on CHO cells (human, UniProt P31995 43-323).
T9 construct: whole, on cells
T9 sequence (looked up): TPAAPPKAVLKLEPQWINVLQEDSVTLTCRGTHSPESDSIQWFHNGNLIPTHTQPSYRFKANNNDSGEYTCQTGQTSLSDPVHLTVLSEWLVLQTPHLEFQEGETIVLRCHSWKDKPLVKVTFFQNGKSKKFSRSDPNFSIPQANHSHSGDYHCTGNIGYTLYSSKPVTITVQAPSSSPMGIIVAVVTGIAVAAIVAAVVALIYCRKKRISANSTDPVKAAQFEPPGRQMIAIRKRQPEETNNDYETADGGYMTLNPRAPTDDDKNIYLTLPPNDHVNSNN
The assay is described as follows: FACS, CHO cells expressing FcγRIIC.

Assay [10] concerns the target T10, human FcγRIIA(H131) expressed on CHO cells (human, UniProt P12318 34-317).
T10 construct: whole, on cells
T10 sequence (looked up): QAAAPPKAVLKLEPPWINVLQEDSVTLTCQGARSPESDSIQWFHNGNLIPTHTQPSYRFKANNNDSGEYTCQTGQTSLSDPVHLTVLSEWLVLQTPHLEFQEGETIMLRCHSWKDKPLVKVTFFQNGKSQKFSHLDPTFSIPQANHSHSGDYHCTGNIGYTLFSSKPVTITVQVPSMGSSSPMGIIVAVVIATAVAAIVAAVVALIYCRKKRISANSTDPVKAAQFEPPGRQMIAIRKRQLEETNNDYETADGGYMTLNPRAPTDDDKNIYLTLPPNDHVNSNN
The assay is described as follows: FACS, CHO cells expressing FcγRIIA(H131).

Assay [11] has as its target T11, human FcγRIIA(R131) expressed on CHO cells (human, UniProt P12318 34-317).
T11 construct: whole, on cells
T11 sequence (looked up): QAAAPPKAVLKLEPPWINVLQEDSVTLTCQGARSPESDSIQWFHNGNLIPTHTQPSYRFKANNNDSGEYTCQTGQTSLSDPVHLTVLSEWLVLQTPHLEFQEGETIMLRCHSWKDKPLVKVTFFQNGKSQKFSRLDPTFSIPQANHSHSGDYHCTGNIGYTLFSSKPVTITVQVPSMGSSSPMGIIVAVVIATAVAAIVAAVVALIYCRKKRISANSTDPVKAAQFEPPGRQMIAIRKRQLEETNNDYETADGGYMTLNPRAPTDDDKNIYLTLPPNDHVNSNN
The assay is described as follows: FACS, CHO cells expressing FcγRIIA(R131).

As a reminder, the Kd is the concentration at which binding is half-saturated. Lower therefore signals a tighter complex. As usually defined, the koff is a measure of how fast the partners let go of each other. High values mean fast dissociation, low ones slow dissociation. What is called kon is the second-order rate constant of association. A low value points to slower complex formation.

T6 sequence (P55899 24-297 limits assumed, form in doubt, chain 1 of 2): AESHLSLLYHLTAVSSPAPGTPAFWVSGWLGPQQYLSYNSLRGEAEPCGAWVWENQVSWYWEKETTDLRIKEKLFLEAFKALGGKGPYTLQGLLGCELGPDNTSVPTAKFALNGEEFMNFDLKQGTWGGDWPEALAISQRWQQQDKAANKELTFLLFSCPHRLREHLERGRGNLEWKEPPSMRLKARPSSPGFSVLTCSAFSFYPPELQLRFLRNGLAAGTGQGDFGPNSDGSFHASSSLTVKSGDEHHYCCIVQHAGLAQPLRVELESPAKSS
T6 sequence (P61769 21-119 limits assumed, form in doubt, chain 2 of 2): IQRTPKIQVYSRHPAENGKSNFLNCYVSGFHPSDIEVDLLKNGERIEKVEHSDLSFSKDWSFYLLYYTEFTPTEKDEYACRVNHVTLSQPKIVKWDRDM
T1 sequence (P12314 16-288 limits assumed): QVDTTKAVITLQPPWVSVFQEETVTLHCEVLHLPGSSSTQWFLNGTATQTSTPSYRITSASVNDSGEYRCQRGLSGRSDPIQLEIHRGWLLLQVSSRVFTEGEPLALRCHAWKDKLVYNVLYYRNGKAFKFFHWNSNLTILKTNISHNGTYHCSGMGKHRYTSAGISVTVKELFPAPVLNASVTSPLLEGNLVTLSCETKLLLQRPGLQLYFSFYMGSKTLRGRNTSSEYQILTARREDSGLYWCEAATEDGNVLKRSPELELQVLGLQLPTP
T7 sequence (P12314 16-374): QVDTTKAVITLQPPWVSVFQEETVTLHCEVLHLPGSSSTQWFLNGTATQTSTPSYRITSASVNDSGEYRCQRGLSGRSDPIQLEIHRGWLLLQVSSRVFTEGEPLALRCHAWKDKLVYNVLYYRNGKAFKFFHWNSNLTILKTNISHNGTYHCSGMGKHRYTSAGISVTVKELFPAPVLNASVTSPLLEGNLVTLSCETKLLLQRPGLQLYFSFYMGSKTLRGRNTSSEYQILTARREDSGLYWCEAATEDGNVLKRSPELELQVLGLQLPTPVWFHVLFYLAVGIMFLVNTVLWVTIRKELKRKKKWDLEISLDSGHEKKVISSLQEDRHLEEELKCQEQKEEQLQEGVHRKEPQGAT

B1: anti-CD137 IgG2 with Fc variant G2m1 (antibody)
heavy: EVQLVQSGAEVKKPGESLRISCKGSGYSFSTYWISWVRQMPGKGLEWMGKIYPGDSYTNYSPSFQGQVTISADKSISTAYLQWSSLKASDTAMYYCARGYGIFDYWGQGTLVTVSSASTKGPSVFPLAPCSRSTSESTAALGCLVKDYFPEPVTVSWNSGALTSGVHTFPAVLQSSGLYSLSSVVTVPSSNFGTQTYTCNVDHKPSNTKVDKTVERKCCVECPPCPAPPVASVFLFPPKPKDTLMISRTPEVTCVVVDVSHEDPEVQFNWYVDGVEVHNAKTKPREEQFNSTFRVVSVLTVVHQDWLNGKEYKCKVSNKGLPAPIEKTISKTKGQPREPQVYTLPPSREEMTKNQVSLTCLVKGFYPSDIAVEWESNGQPENNYKTTPPMLDSDGSFFLYSKLTVDKSRWQQGNVFSCSVMHEALHNHYTQKSLSLSPGK
light: SYELTQPPSVSVSPGQTASITCSGDNIGDQYAHWYQQKPGQSPVLVIYQDKNRPSGIPERFSGSNSGNTATLTISGTQAMDEADYYCATYTGFGSLAVFGGGTKLTVLGQPKAAPSVTLFPPSSEELQANKATLVCLISDFYPGAVTVAWKADSSPVKAGVETTTPSKQSNNKYAASSYLSLTPEQWKSHRSYSCQVTHEGSTVEKTVAPTECS
notes: copies: 2 + 2
Regarding B1, the binding result is “no binding (tested: 300 nM)” in [1]; “no binding (tested: 300 nM)” in [2]; “no binding (tested: 300 nM)” in assay [3]; “no binding (tested: 300 nM)” in [4]; “no binding (tested: 300 nM)” in assay [5]; “no binding (tested: 10 ug/ml)” in assay [7]. The binding result in [8], in [9], in [10] and in assay [11] was “no binding (tested: 10 ug/ml)” each time. In [6], this molecule had a Kd of 5.5 nM. This molecule also yielded an off-rate constant (koff) in [6] of 0.00096 s⁻¹. The molecule also came in with an on-rate constant (kon) in [6] of 170000 M⁻¹ s⁻¹.
